This note sets out measurements from publication PMC6117947, “A role for trypanosomatid aldo-keto reductases in methylglyoxal, prostaglandin and isoprostane metabolism” (Biochemical Journal, 2018).

Data set [1] deals with Leishmania infantum prostaglandin F synthase 1 (LiPGFS1) (Leishmania infantum). Kind of data set: SEC; Superdex 75 10/300; LiPGFS1 kept 96 h at 4°C without a reducing agent, run without TCEP; the dimer relies on a disulfide bond.
Substrate in data set [2]: O=Cc1ccc([N+](=O)[O-])cc1
As to the kind of experiment: purified protein. Format: biochemical, Leishmania infantum. The settings on record: 100 µM NADPH, 25 mM HEPES, 150 mM NaCl, pH 7.33.

Substrate in data set [3]: O=CC(O)CO
As to the kind of experiment: purified protein. Type of data set: biochemical, Leishmania infantum. To be noted: 100 µM NADPH, 25 mM HEPES, 150 mM NaCl, pH 7.33.

Substrate in data set [4]: CC(=O)C=O
As to the kind of experiment: purified protein. Format: biochemical, Leishmania infantum. To be noted: 100 µM NADPH, 25 mM HEPES, 150 mM NaCl, pH 7.33.

Substrate in data set [5]: O=CC(=O)c1ccccc1
As to the kind of experiment: purified protein. Type of data set: biochemical, Leishmania infantum. The settings on record: 100 µM NADPH, 25 mM HEPES, 150 mM NaCl, pH 7.33.

Substrate in data set [6]: O=Cc1ccccc1[N+](=O)[O-]
As to the kind of experiment: purified protein. Type of data set: biochemical, Leishmania infantum. To be noted: 100 µM NADPH, 25 mM HEPES, 150 mM NaCl, pH 7.33.

Substrate in data set [7]: O=CC(O)CO
As to the kind of experiment: purified protein. Format: biochemical, Trypanosoma cruzi. To be noted: 100 µM NADPH, 25 mM HEPES, 150 mM NaCl, pH 7.33.

Substrate in data set [8]: CC(=O)C=O
As to the kind of experiment: purified protein. Format: biochemical, Trypanosoma cruzi. The settings on record: 100 µM NADPH, 25 mM HEPES, 150 mM NaCl, pH 7.33.

Substrate in data set [9]: O=CC(=O)c1ccccc1
Kind of data set: purified protein. Type of data set: biochemical, Trypanosoma cruzi. To be noted: 100 µM NADPH, 25 mM HEPES, 150 mM NaCl, pH 7.33.

Substrate in data set [10]: O=CC=O
Kind of data set: purified protein. Format: biochemical, Trypanosoma cruzi. The settings on record: 100 µM NADPH, 25 mM HEPES, 150 mM NaCl, pH 7.33.

Substrate in data set [11]: O=Cc1ccccc1[N+](=O)[O-]
As to the kind of experiment: purified protein. Type of data set: biochemical, Trypanosoma cruzi. The settings on record: 100 µM NADPH, 25 mM HEPES, 150 mM NaCl, pH 7.33.

Substrate in data set [12]: O=Cc1ccc([N+](=O)[O-])cc1
Kind of data set: purified protein. To be noted: 100 µM NADPH, 25 mM HEPES, 150 mM NaCl, pH 7.33. Format: biochemical, Trypanosoma brucei.

Substrate in data set [13]: CC(=O)C=O
As to the kind of experiment: purified protein. Format: biochemical, Trypanosoma brucei. To be noted: 100 µM NADPH, 25 mM HEPES, 150 mM NaCl, pH 7.33.

Substrate in data set [14]: O=CC(=O)c1ccccc1
As to the kind of experiment: purified protein. Format: biochemical, Trypanosoma brucei. The settings on record: 100 µM NADPH, 25 mM HEPES, 150 mM NaCl, pH 7.33.

Substrate in data set [15]: O=Cc1cccc([N+](=O)[O-])c1
Kind of data set: purified protein. Format: biochemical, Trypanosoma brucei. The settings on record: 100 µM NADPH, 25 mM HEPES, 150 mM NaCl, pH 7.33.

Substrate in data set [16]: O=Cc1ccccc1[N+](=O)[O-]
As to the kind of experiment: purified protein. Format: biochemical, Trypanosoma brucei. To be noted: 100 µM NADPH, 25 mM HEPES, 150 mM NaCl, pH 7.33.

Substrate in data set [17]: O=CC=O
As to the kind of experiment: purified protein. Type of data set: biochemical, Leishmania infantum. The settings on record: 100 µM NADPH, 25 mM HEPES, 150 mM NaCl, pH 7.33.

Substrate in data set [18]: O=Cc1cccc([N+](=O)[O-])c1
Kind of data set: purified protein. Format: biochemical, Leishmania infantum. To be noted: 100 µM NADPH, 25 mM HEPES, 150 mM NaCl, pH 7.33.

In data set [1], “Leishmania infantum prostaglandin F synthase 1 (LiPGFS1) (enzyme)” had a percent of the protein eluting as dimer of 25% and a stoichiometry N of 2.

B1: LiPGFS1 (Leishmania infantum) (protein)
chain: MTGKCTHVTLGNGVQVPQLGIGTWEAKNGNEVVQNIKWAINAGYRHIDTAHYYKNEKGVGQGISECGVPRSDIFVTTKLWNYDHGYESALAAFEQSRQALGVEYVDLYLIHWPGPNRSYIETWRAFEKLYEMKKVRAIGVSNFEPHHLDDLLANCTVPPMVNQVEMHPHFQQKALRAYCAEKNIAVTAWRPLGKGALLTEPQLVELAEKHKRSAAQVIIRWLIQLGVIAIPKSSHEERIKQNFDVFDFELSPEDMRRLESMDKNSRIGPSPETFFPTECK
notes: synthetic full-length ORF (GeneART), pET15b-TEV, E. coli, His6 tag cut with TEV protease; mainly monomer
Take B1: the Michaelis constant (Km) in “purified protein [2]” was determined as 430 ± 26 µM; in “purified protein [3]”, 2870 ± 80 µM; in “purified protein [4]”, 800 ± 70 µM; in the data set “purified protein [5]” it was 140 ± 8 µM; in the data set “purified protein [6]”, 320 ± 20 µM. Also, the kcat in “purified protein [2]” worked out at 0.48 ± 0.01 s⁻¹; in the data set “purified protein [3]”, 8.72 ± 0.11 s⁻¹; in the data set “purified protein [4]”, 8.72 ± 0.17 s⁻¹; in the data set “purified protein [5]” it was 10.4 ± 0.22 s⁻¹; in the data set “purified protein [6]”, 8.5 ± 0.21 s⁻¹. Besides, the kcat/Km came out at 1110 M⁻¹ s⁻¹ in “purified protein [2]”; 3040 M⁻¹ s⁻¹ in “purified protein [3]”; 10900 M⁻¹ s⁻¹ in “purified protein [4]”; 74300 M⁻¹ s⁻¹ in the data set “purified protein [5]”; 26600 M⁻¹ s⁻¹ in the data set “purified protein [6]”.

B2: TcAKR (Trypanosoma cruzi) (protein)
chain: MNCNYNCVTLHNSAQMPQLGLGVWRAQDGAETANAVRWAIEAGYRHIDTACIYNNEKGVGQGIRESGVPREEVWVTTKVWNSDQGYEKTLAAFERSRELLGLEYIDLYLIHWPGKKKFVDTWKALEKLYEEKKVRAIGVSNFEPHHLTELFKSCKIRPMVNQVELHPLFQQRALREFCKQHNIAVTAWSPLGSGDEAGILKNHVLGEIAKKHNKSPAQVVIRWDIQHGIVTIPKSTNKGRIQENFNVWDFKLTEEEMRQIDELNEDKRIGADPDNFFPGGEE
notes: full-length ORF, pET15b-TEV, E. coli Rosetta (DE3) pLysS, His6 tag cut with TEV protease; monomer
For B2, the Michaelis constant (Km) amounted to 1500 ± 170 µM in “purified protein [7]”, 50 ± 3 µM in “purified protein [9]”, 8300 ± 310 µM in the data set “purified protein [10]” and 710 ± 80 µM in the data set “purified protein [11]”. The kcat in “purified protein [7]” was determined as 4.94 ± 0.11 s⁻¹; in the data set “purified protein [8]”, 4.69 ± 0.03 s⁻¹; in the data set “purified protein [9]”, 4.46 ± 0.08 s⁻¹; in “purified protein [10]”, 4.56 ± 0.05 s⁻¹; in the data set “purified protein [11]”, 2.25 ± 0.11 s⁻¹. Moreover, the kcat/Km in the data set “purified protein [7]” was 3290 M⁻¹ s⁻¹; in “purified protein [8]”, 19500 M⁻¹ s⁻¹; in “purified protein [9]” it was 89200 M⁻¹ s⁻¹; in “purified protein [10]” it was 549 M⁻¹ s⁻¹; in the data set “purified protein [11]”, 3170 M⁻¹ s⁻¹.

B3: TbPGFS (Trypanosoma brucei brucei) (protein)
chain: MALTQSLKLSNGVMMPVLGFGMWKLQDGNEAETATMWAIKSGYRHIDTAAIYKNEESAGRAIASCGVPREELFVTTKLWNSDQGYESTLSAFEKSIKKLGLEYVDLYLIHWPGKDKFIDTWKAFEKLYADKKVRAIGVSNFHEHHIEELLKHCKVAPMVNQIELHPLLNQKALCEYCKSKNIAVTAWSPLGQGHLVEDARLKAIGGKYGKTAAQVMLRWEIQAGVITIPKSGNEARIKENGNIFDFELTAEDIQVIDGMNAGHRYGPDPEVFMNDF
notes: full-length ORF from genomic DNA, pET15b-TEV, E. coli, His6 tag cut with TEV protease; monomer
For the molecule B3, the Km came to 4.3 ± 0.2 µM in “purified protein [12]”, 5 ± 0.8 µM in “purified protein [14]”, 2 ± 0.1 µM in the data set “purified protein [15]” and 3 ± 0.3 µM in the data set “purified protein [16]”. Also, the kcat in the data set “purified protein [12]” was 0.43 ± 0.008 s⁻¹; in “purified protein [13]”, 0.38 ± 0.007 s⁻¹; in the data set “purified protein [14]” it was 0.34 ± 0.014 s⁻¹; in “purified protein [15]” it was 0.34 ± 0.005 s⁻¹; in “purified protein [16]”, 0.41 ± 0.002 s⁻¹. The specificity constant (kcat/Km) in “purified protein [12]” was 100000 M⁻¹ s⁻¹; in the data set “purified protein [13]”, 38000 M⁻¹ s⁻¹; in “purified protein [14]”, 68000 M⁻¹ s⁻¹; in “purified protein [15]”, 170000 M⁻¹ s⁻¹; in the data set “purified protein [16]”, 140000 M⁻¹ s⁻¹.

B4: LiPGFS2 (Leishmania infantum) (protein)
chain: MADVGKAMVTLSNGVQMPQLGLGVWQSPAGEVTANAVKWALCAGYRHIDTAAIYKNEESVGAGLRASGVPREDVFITTKLWNTEQGYESTLAAFEESRQKLGVDYIDLYLIHWPRGKDIVSKEGKKYLDSWRAFEQLYKDKKVRAIGVSNFHIHHLEDVLAMCTVTPMVNQVELHPLNNQAELRAFCDAKQIKVEAWSPLGQGKLLSNPILAAIGAKYNKTAAQVILRWNIQKNLITIPKSVHKERIEENADVFNFELGAEDVMRIDALNTNSRYGPDPDEAQF
notes: as for B3
Consider B4, for which the Km in “purified protein [2]” was 4 ± 0.6 µM; in “purified protein [17]”, 560 ± 50 µM; in “purified protein [18]” it was 2 ± 0.3 µM; in the data set “purified protein [6]”, 2.4 ± 0.3 µM. The kcat in “purified protein [2]” was 1.13 ± 0.05 s⁻¹; in “purified protein [4]”, 1.13 ± 0.01 s⁻¹; in the data set “purified protein [17]” it was 1.05 ± 0.02 s⁻¹; in the data set “purified protein [18]”, 1.04 ± 0.02 s⁻¹; in the data set “purified protein [6]”, 1.04 ± 0.02 s⁻¹. For the same molecule, the kcat/Km in “purified protein [2]” was 283000 M⁻¹ s⁻¹; in “purified protein [4]” it was 56500 M⁻¹ s⁻¹; in “purified protein [17]”, 1880 M⁻¹ s⁻¹; in the data set “purified protein [18]” it was 520000 M⁻¹ s⁻¹; in the data set “purified protein [6]”, 433000 M⁻¹ s⁻¹.

The term stoichiometry N denotes the number of molecules, sites or subunits per partner or assembly. The Km is the concentration of substrate that gives half-maximal velocity. The term kcat denotes the number of substrate molecules converted per active site and unit of time at saturation. For orientation: kcat/Km means the second-order rate constant that governs catalysis at low substrate concentration.
